We go through 6 molecules from patent US10801046B2, “Methods and materials for biosynthesizing multifunctional, multivariate molecules via carbon chain modification” (INVISTA NORTH AMERICA S.A.R.L., priority 2016, dated 2020).

The labels stand for the following.
B1: SEQ ID NO: 81: Citrobacter rodentium thioesterase (protein)
chain: MVNFNNVFRWHLPFLFLILFTCRSVAADTLLILGDSLSAGYRMSASAAWPALLNDKWHSKTTIVNASISGDTSGQALARLPALLKQHQPRWVLVELGGNDGLRGFSPAQTEQTLRTILQNVKAASAEPLLMQIRLPANYGRRYNETFSAIYPKLASEFDIPLLPFFMEEVYLKPQWMQDDGIHPNRDAQPFIADWMAKQLSPLVKYES
modifications: Citrobacter rodentium (strain ICC168)
notes: Citrobacter rodentium thioesterase
B2: SEQ ID NO: 80: Clostridium sp. CAG:306 thioesterase (protein)
chain: MLFTKEYEIKYYEQNVNGDLKESALLNFLQDIATLSAESLGFGPSFVFANNYAWVVLKYHIELFAPLRNLSSIVIKTEPRGIAKLYAYRDFELYTKDGQCIGKAVSTWVLIDICTRKLLNTQKILADFMAPYQKRETDLVYEKIDSPDELMYQEVFDVRFDDIDVNRHANNSNYIVWALETLPVDFRLKHSPKTIDIKYKKEIGINSRVLSEAQQILTDGNVQTLHVIKDEQNAQDLTSLKIVWQ
modifications: Clostridium sp. CAG:306
notes: Clostridium sp; CAG:306 thioesterase
B3: SEQ ID NO: 77: Spirochaeta smaragdinae thioesterase (protein, listed as Sediminispirochaeta smaragdinae)
chain: MKQVSRYTTEHTVMYSETDARGVLSLPSFFALFQEAALLHAEELGFGETYSKQENLMWVLSRLLLEIDAFPKHRDRIRLSTWPKQPQGPFAIRDYILESEEGTVCARATSSWLLLKLDTMRPIRPQTIFANLSMEGIGLAVEGTAPKISEIDNDSKQEMEVTARYSDLDQNNHVNNTRYVRWFLDCYTPEEITTSGNLHFAINYLQAASYSDKLLLRRYDTESDSSVYGYLEDGTPSFSARIERKSD
modifications: Sediminispirochaeta smaragdinae (strain DSM 11293 / JCM 15392 / SEBR 4228)
notes: Spirochaeta smaragdinae thioesterase
B4: SEQ ID NO: 79: Thermincola potens thioesterase (protein)
chain: MEPYQTSIPVHYYEINNHRQASPVAILNYLEEAAIRHSESVGWGIEKLLANSRGWLLTRWSLHMQKYPQWGETVNIETWPYKFERFYATREFRISDREGRVLGAATTLWVFFDLRRKRPVRIPPDIYDAYGTGAERMVADEFADLPVVDEPEIKLEFRVRLSDIDTNDHVNNTKYVEWLLETVPLSVHNGFLLSSVEIAYKKETSYGSTVLCGIKETEAGERQTTFLHIILDKDSGTELARARTVWQKRSKI
modifications: Thermincola potens (strain JR)
B5: SEQ ID NO: 58: Spongiibacter sp. IMCC21906 thioesterase (protein)
chain: MTHFIQFLPGRISPRRALALLLVLLLQGALPRIVLADTILLLGDSLSAAYKIPVESSWPALLQDSIDEEHSLKNASVSGETTAGGLARLPALLAKNNTDILIIELGGNDGLRGYPLVRIRENIEKMIKLGQKKGAKVVLLGMHIPPNYGRRYADGFHNIYLSLAEENNTALLPFLLDGVAKQPRLMQGDGIHPTAEAQPIILQNVLSVLRPLLDSTN
modifications: Spongiibacter sp. IMCC21906
notes: Spongiibacter sp; IMCC21906 thioesterase
B6: SEQ ID NO: 68: Agathobacter rectalis DSM 17629 thioesterase (protein)
chain: MAFSFDSRIRYSEVDSSCRLSLTGLTNYFQDCSVFHSQSHDVGIRFLADNHIAWVLSSWQICINRLPLLNEQVKISTWAYGMKAFYGYRNFTLEDAGGSTLAYANSVWVLVDTRTGRPVKVPQEFADTYGLEPQLEMECAKRKLHIPDDMEKKGEIEVPQFFIDSNHHMNNEKYVMLAQQLLPNDFEISELRVEYRKEAKLGDTVISYVKYTSKSVTVVLADTDKKPYSVVEFLSKPVPGK
modifications: Eubacterium rectale DSM 17629
notes: Agathobacter rectalis DSM 17629 thioesterase

The experiment relates to heptanedioyl-ACP methyl ester. The format is cell-based, Escherichia coli. To be noted: top 150 hits screened in vivo.
Take B1: the “activity toward heptanedioyl-ACP methyl ester in vivo” value was “showed activity toward heptanedioyl-ACP methyl ester”.

Take B2: the “activity toward heptanedioyl-ACP methyl ester in vivo” value is on record as “showed activity toward heptanedioyl-ACP methyl ester”.

Regarding B3, the “activity toward heptanedioyl-ACP methyl ester in vivo” value is “showed activity toward heptanedioyl-ACP methyl ester”.

In the case of B4, the “activity toward heptanedioyl-ACP methyl ester in vivo” value was “showed activity toward heptanedioyl-ACP methyl ester”.

Turning to B5, the “activity toward heptanedioyl-ACP methyl ester in vivo” value is “showed activity toward heptanedioyl-ACP methyl ester”.

Turning to B6, the “activity toward heptanedioyl-ACP methyl ester in vivo” value is recorded as “showed activity toward heptanedioyl-ACP methyl ester”.
